No end group written: not given here. TMR = tetramethyl rhodamine dye
T1: Rb^P A490T (human, UniProt P06400 380-788, A490T)
T1 construct: also called variant 16
T1 sequence (looked up): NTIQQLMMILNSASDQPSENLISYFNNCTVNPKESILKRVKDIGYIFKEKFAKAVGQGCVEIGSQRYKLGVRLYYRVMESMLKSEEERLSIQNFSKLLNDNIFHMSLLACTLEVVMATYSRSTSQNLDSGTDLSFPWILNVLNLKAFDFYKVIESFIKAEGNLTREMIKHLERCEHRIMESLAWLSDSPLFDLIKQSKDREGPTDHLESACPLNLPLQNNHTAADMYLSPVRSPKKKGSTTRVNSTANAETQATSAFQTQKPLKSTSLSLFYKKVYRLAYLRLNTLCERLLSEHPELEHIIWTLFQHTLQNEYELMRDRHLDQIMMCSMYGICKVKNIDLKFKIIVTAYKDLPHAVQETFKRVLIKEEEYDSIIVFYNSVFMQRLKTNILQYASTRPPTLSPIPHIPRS

T2: Rb^P R556Q (human, UniProt P06400 380-788, R556Q)
T2 construct: also called variant 30
T2 sequence (looked up): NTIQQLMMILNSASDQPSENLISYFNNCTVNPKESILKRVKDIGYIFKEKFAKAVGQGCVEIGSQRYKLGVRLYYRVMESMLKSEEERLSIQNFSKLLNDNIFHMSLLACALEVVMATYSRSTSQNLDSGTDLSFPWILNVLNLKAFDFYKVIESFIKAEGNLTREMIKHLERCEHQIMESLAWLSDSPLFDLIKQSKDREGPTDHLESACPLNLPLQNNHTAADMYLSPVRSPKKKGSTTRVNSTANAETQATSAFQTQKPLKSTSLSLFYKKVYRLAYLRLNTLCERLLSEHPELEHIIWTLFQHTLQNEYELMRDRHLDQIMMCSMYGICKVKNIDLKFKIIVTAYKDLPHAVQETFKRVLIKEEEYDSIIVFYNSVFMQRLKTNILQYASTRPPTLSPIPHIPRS

T3: Rb^P S612P (human, UniProt P06400 380-788, S612P)
T3 construct: also called variant 39
T3 sequence (looked up): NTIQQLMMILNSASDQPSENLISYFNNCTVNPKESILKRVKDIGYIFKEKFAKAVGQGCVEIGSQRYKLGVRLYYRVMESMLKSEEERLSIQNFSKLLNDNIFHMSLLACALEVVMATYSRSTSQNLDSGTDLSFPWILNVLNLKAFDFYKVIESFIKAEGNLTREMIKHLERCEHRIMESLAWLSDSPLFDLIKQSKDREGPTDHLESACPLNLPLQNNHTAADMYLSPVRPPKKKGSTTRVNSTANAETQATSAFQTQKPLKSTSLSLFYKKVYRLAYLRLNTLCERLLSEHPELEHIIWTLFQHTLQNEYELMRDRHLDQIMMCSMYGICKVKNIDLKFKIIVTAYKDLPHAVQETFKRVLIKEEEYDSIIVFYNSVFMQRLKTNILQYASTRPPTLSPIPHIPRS

T4: Rb^P S751Y (human, UniProt P06400 380-788, S751Y)
T4 construct: also called variant 72
T4 sequence (looked up): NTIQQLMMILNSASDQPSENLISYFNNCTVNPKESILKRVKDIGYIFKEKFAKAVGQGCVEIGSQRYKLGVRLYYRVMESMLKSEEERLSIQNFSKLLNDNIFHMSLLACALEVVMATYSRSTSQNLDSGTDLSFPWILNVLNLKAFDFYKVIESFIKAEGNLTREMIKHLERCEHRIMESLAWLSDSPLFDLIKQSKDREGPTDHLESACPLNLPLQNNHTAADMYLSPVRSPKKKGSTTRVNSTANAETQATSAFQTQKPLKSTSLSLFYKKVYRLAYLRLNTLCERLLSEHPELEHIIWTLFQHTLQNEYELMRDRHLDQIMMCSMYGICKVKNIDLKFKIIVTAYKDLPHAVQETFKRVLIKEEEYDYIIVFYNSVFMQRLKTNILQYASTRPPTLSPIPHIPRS

T5: Rb^P M761L (human, UniProt P06400 380-788, M761L)
T5 construct: also called variant 74
T5 sequence (looked up): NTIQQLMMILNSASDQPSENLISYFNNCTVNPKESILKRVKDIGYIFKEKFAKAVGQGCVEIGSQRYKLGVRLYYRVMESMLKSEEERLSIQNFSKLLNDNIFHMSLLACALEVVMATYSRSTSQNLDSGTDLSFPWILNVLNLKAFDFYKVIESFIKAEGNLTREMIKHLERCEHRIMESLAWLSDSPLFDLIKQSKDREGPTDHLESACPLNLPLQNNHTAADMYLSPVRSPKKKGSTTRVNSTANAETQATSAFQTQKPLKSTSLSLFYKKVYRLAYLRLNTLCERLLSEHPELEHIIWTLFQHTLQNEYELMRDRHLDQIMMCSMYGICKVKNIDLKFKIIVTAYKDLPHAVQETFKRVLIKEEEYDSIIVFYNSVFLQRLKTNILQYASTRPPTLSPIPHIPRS


Tests used:
Assay in all cases: fluorescence polarisation; 37 °C, after the 25 °C reading ramped over 7 min to 37 °C and 2 min incubation; unlabeled Rb^P against 1.5 nM TMR-E2F1^TD or 7.5 nM TMR-E7^LxCxE; 25 mM Tris pH 8.0, 200 mM NaCl, 1 mM DTT, 0.1% Tween-20; apparent Kd
Conditions in all cases: both partners purified
Rb^P A490T = biological target: T1, Rb^P A490T
Rb^P R556Q = biological target: T2, Rb^P R556Q
Rb^P S612P = biological target: T3, Rb^P S612P
Rb^P S751Y = biological target: T4, Rb^P S751Y
Rb^P M761L = biological target: T5, Rb^P M761L

| Binder | Kd (Rb^P A490T) | Kd (Rb^P R556Q) | Kd (Rb^P S612P) | Kd (Rb^P S751Y) | Kd (Rb^P M761L) |
| --- | --- | --- | --- | --- | --- |
| {TMR}-GEGIRDLFDCDFGDLTPLD (also called E2F^TD; source: synthetic peptide, bought: GenScript) [TMR-E2F1^TD, peptide of the E2F1 transactivation domain] | 115 nM | 48 nM | 49 nM | 127 nM | 68 nM |
| DLYCYEQLN (also: TMR label, position not given here, source: synthetic peptide, bought: GenScript) [TMR-E7^LxCxE, LxCxE peptide of the E7 oncoprotein from HPV] | 33 nM | 13 nM | 17 nM | 420 nM | 5 nM |

From publication PMC11931385, “Structural and functional analysis of cancer-associated missense variants in the retinoblastoma protein pocket domain” (The Journal of Biological Chemistry, 2025)
